Target: T1, interaction (binding) between FKBP12 and FRB (Homo sapiens, UniProt P42345+P62942)
T1 construct: FLAG-FRB expression vector; expressed in transfected cells; host or cells: HEK-293T (ATCC CRL-11268)
Assay: Split SEAP fragment complementation: SEAP activity in culture supernatant (pNpp, absorbance 405 nm) after rapamycin-induced FKBP12-FRB binding
Format: cell-based
Settings: HEK-293T cells, same manner as Example 2; for SEAP activity of the pair pSNA379 with pSCA373 or pSCB373 (FIG. 6): N-terminal fragment cleaved at 379, C-terminal fragment cleaved at 372; for SEAP activity of the pair pSNA418 with pSCA405 or pSCB405 (FIG. 6): N-terminal fragment cleaved at 418, C-terminal fragment cleaved at 404; for SEAP activity of the pair pSNA404 with pSCA388 or pSCB388 (FIG. 6): N-terminal fragment cleaved at 404, C-terminal fragment cleaved at 387; for SEAP activity of the pair pSNA387 with pSCA380 (FIG. 6): N-terminal fragment cleaved at 387, C-terminal fragment cleaved at 379
Description: HEK-293T (Human embryonic kidney cell, ATCC: CRL-11268) cells were cultured in DMEM (Dulbecco's modified Eagle's media, Gibco, Seoul, South Korea) treated with a 10% (v/v) FBS (HyClone) and 1% (v/v) penicillin/streptomycin solution (HyClone) and cultured at 37° C. in a humidified atmosphere containing 5% CO2.
HEK-293T cells were seeded at 2×10^4 cells per well in a 48-well plate and cultured until 24 hours before transformation.
For the transformation, 0.15 μL of PEI (PEI, <20,000 MW, Cat. No. 23966, Polysciences, Inc., Warrington, Pa., USA; stock solution: 4 mg/mL in ddH20, pH 7.2) was mixed with 0.2 pLg of DNA, and the mixture was vortexed for 5 seconds and then incubated for 20 minutes at 25° C. to prepare 40 μL of DNA-PEI mixture per well. At this time, the DNA was prepared by mixing a vector (pSNA series) containing a SEAP N-terminal fragment and a vector (pSCA or pSCB series) containing a SEAP C-terminal fragment.
After 24 hours of the transformation, the culture medium was replaced with DMEM with 100 nM rapamycin or DMEM without rapamycin.
SEAP activity was measured after 24 hours. The SEAP activity was measured in a time course using a p-nitrophenylphosphate (pNpp)-based absorbance (405 nm) measuring method. 80 μL of a culture medium supernatant, 100 μL of a 2× SEAP buffer solution (21% diethanolamine, 20 mM L-homoarginine, and 1 mM MgCl2, pH 9.8), and 20 μL of 120 mM pNpp were mixed and reacted with one another, and then absorbance at 405 nm was measured.

T1 sequence (P62942 whole entry): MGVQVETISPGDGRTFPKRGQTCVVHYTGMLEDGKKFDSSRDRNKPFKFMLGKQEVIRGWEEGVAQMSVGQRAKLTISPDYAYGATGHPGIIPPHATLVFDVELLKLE
T1 sequence (P42345 2012-2144): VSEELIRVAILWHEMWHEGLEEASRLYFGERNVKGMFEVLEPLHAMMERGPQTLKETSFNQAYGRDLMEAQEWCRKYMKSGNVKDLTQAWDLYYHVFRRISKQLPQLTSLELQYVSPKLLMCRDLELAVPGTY

pSNA379: HA-FKBP-snSEAP fusion: SEAP N-terminal fragment (1-379) fused to C-terminal of FKBP12, expression vector
SEAP activity of the pair pSNA379 with pSCA373 or pSCB373 (FIG. 6): excellent SEAP activity

pSNA418: HA-FKBP-snSEAP fusion: SEAP N-terminal fragment (1-418), expression vector
SEAP activity of the pair pSNA418 with pSCA405 or pSCB405 (FIG. 6): excellent SEAP activity

pSNA404: HA-FKBP-snSEAP fusion: SEAP N-terminal fragment (1-404), expression vector
SEAP activity of the pair pSNA404 with pSCA388 or pSCB388 (FIG. 6): excellent SEAP activity

pSNA387: HA-FKBP-snSEAP fusion: SEAP N-terminal fragment (1-387), expression vector
SEAP activity of the pair pSNA387 with pSCA380 (FIG. 6): excellent SEAP activity

B1: pSCB405: scSEAP-FRB-FLAG fusion: SEAP C-terminal fragment (405-502), cleaved at position 404, expression vector (protein)
chain: ARPDVTESESGSPEYRQQSAVPLDEETHAGEDVAVFARGPQAHLVHGVQEQTFIAHVMAFAACLEPYTACDLAPPAGTTDAAHPGYSRVGAAGRFEQTKGSGSTSGSGILWHEMWHEGLEEASRLYFGERNVKGMFEVLEPLHAMMERGPQTLKETSFNQAYGRDLMEAQEWCRKYMKSGNVKDLTQAWDLYYHVFRRISK
modifications: left off: small tags and cut ends
notes: scSEAP-FRB-FLAG fusion: SEAP C-terminal fragment (405-502), cleaved at position 404, expression vector
SEAP activity of the pair pSNA418 with pSCA405 or pSCB405 (FIG. 6): excellent SEAP activity

B2: pSCA388: FLAG-FRB-scSEAP fusion: SEAP C-terminal fragment (388-502), cleaved at position 387, expression vector (protein)
chain: ILWHEMWHEGLEEASRLYFGERNVKGMFEVLEPLHAMMERGPQTLKETSFNQAYGRDLMEAQEWCRKYMKSGNVKDLTQAWDLYYHVFRRISKKGSGSTSGSGYTVLLYGNGPGYVLKDGARPDVTESESGSPEYRQQSAVPLDEETHAGEDVAVFARGPQAHLVHGVQEQTFIAHVMAFAACLEPYTACDLAPPAGTTDAAHPGYSRVGAAGRFEQT
modifications: left off: small tags and cut ends
notes: FLAG-FRB-scSEAP fusion: SEAP C-terminal fragment (388-502), cleaved at position 387, expression vector
SEAP activity of the pair pSNA404 with pSCA388 or pSCB388 (FIG. 6): excellent SEAP activity

B3: pSCB388: scSEAP-FRB-FLAG fusion: SEAP C-terminal fragment (388-502), cleaved at position 387, expression vector (protein)
chain: YTVLLYGNGPGYVLKDGARPDVTESESGSPEYRQQSAVPLDEETHAGEDVAVFARGPQAHLVHGVQEQTFIAHVMAFAACLEPYTACDLAPPAGTTDAAHPGYSRVGAAGRFEQTKGSGSTSGSGILWHEMWHEGLEEASRLYFGERNVKGMFEVLEPLHAMMERGPQTLKETSFNQAYGRDLMEAQEWCRKYMKSGNVKDLTQAWDLYYHVFRRISK
modifications: left off: small tags and cut ends
notes: scSEAP-FRB-FLAG fusion: SEAP C-terminal fragment (388-502), cleaved at position 387, expression vector
SEAP activity of the pair pSNA404 with pSCA388 or pSCB388 (FIG. 6): excellent SEAP activity

B4: pSCB373: scSEAP-FRB-FLAG fusion: SEAP C-terminal fragment (373-502), cleaved at position 372, expression vector (protein)
chain: SIFGLAPGKARDRKAYTVLLYGNGPGYVLKDGARPDVTESESGSPEYRQQSAVPLDEETHAGEDVAVFARGPQAHLVHGVQEQTFIAHVMAFAACLEPYTACDLAPPAGTTDAAHPGYSRVGAAGRFEQTKGSGSTSGSGILWHEMWHEGLEEASRLYFGERNVKGMFEVLEPLHAMMERGPQTLKETSFNQAYGRDLMEAQEWCRKYMKSGNVKDLTQAWDLYYHVFRRISK
modifications: left off: small tags and cut ends
notes: scSEAP-FRB-FLAG fusion: SEAP C-terminal fragment (373-502), cleaved at position 372, expression vector
SEAP activity of the pair pSNA379 with pSCA373 or pSCB373 (FIG. 6): excellent SEAP activity

B5: pSCA405: FLAG-FRB-scSEAP fusion: SEAP C-terminal fragment (405-502), cleaved at position 404, expression vector (protein)
chain: ILWHEMWHEGLEEASRLYFGERNVKGMFEVLEPLHAMMERGPQTLKETSFNQAYGRDLMEAQEWCRKYMKSGNVKDLTQAWDLYYHVFRRISKKGSGSTSGSGARPDVTESESGSPEYRQQSAVPLDEETHAGEDVAVFARGPQAHLVHGVQEQTFIAHVMAFAACLEPYTACDLAPPAGTTDAAHPGYSRVGAAGRFEQT
modifications: left off: small tags and cut ends
notes: FLAG-FRB-scSEAP fusion: SEAP C-terminal fragment (405-502), cleaved at position 404, expression vector
SEAP activity of the pair pSNA418 with pSCA405 or pSCB405 (FIG. 6): excellent SEAP activity

B6: pSCA380: FLAG-FRB-scSEAP fusion: SEAP C-terminal fragment (380-502), cleaved at position 379, expression vector (protein)
chain: ILWHEMWHEGLEEASRLYFGERNVKGMFEVLEPLHAMMERGPQTLKETSFNQAYGRDLMEAQEWCRKYMKSGNVKDLTQAWDLYYHVFRRISKKGSGSTSGSGGKARDRKAYTVLLYGNGPGYVLKDGARPDVTESESGSPEYRQQSAVPLDEETHAGEDVAVFARGPQAHLVHGVQEQTFIAHVMAFAACLEPYTACDLAPPAGTTDAAHPGYSRVGAAGRFEQT
modifications: left off: small tags and cut ends
notes: FLAG-FRB-scSEAP fusion: SEAP C-terminal fragment (380-502), cleaved at position 379, expression vector
SEAP activity of the pair pSNA387 with pSCA380 (FIG. 6): excellent SEAP activity

B7: pSCA373: FLAG-FRB-scSEAP fusion: SEAP C-terminal fragment (373-502), cleaved at position 372, expression vector (protein)
chain: ILWHEMWHEGLEEASRLYFGERNVKGMFEVLEPLHAMMERGPQTLKETSFNQAYGRDLMEAQEWCRKYMKSGNVKDLTQAWDLYYHVFRRISKKGSGSTSGSGSIFGLAPGKARDRKAYTVLLYGNGPGYVLKDGARPDVTESESGSPEYRQQSAVPLDEETHAGEDVAVFARGPQAHLVHGVQEQTFIAHVMAFAACLEPYTACDLAPPAGTTDAAHPGYSRVGAAGRFEQT
modifications: left off: small tags and cut ends
notes: FLAG-FRB-scSEAP fusion: SEAP C-terminal fragment (373-502), cleaved at position 372, expression vector
SEAP activity of the pair pSNA379 with pSCA373 or pSCB373 (FIG. 6): excellent SEAP activity

Source: patent publication US20200308559A1, “Composition for detecting protein-protein interactions comprising fragments of secreted alkaline phosphatase (SEAP) and method for detecting protein-protein interactions using the same” (priority 2019, published 2020)
